The results in this text go back to article PMC11381347.

The experiment concerns the target N-terminal SmBiT-tagged SETD1A FLOS domain fragment (Sm-FO3). In words: split-NanoLuciferase-complementation assay with non-tagged competitor. The settings on record: Sm-FO3 + N200-Lg with non-tagged competitor construct; parent: est. 3.6; read off a plot.

For “non-tagged BOD1L Shg1 fragment N200 (competitor) (from UniProt Q8NFC6) W104A”, the response was 7.6 RLU, x10^5.
